Results reported in the nanobody polyreactivity screen of Harvey et al. (2022).

Experiment: yeast display, Sf9 membrane polyspecificity reagent, FACS + sequencing; frameworks hold sequencing errors
Outline: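 A nanobody's polyreactivity label depends on the gate it was sorted from. Yeast display cells were stained with 10% biotinylated, detergent-solubilized Sf9 membrane reagent for 1 hour at 4 °C, enriched on streptavidin microbeads and sorted by FACS. The low and high (top ~1%) gates were set on anti-HA fluorescence for expression and streptavidin fluorescence for reagent binding.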

Sequence | polyreactivity (PSR sort gate)
QVQLVESGGGLVQAGGSLRLSCAASGRTIYGYAMGWYRQAPGKERELVAAISWTGGRTYYADSVKGRFTISRDNAKNTVYLQMNSLKPEDTAVYYCNARRRGDSGDGYIYGYWGQGTQVNVSS | high polyreactivity
QVQLVESGGGLVPARGSLRLSCAASGNIFFVYDMGWYRQAPGKERELVAAISWSGGSTYADSVKGRFTISRDNGKNNVYLQMNSLKPEDTGVYYCAADVAYVEYDYWGQGSQVTVSS | low polyreactivity
QVQLVESGGGLVQAGGSLRLSCAASGRIFRYYAMGWYRQAPGKERELVAAISYSTGGTYYADSVKGRFTISRDNAKNTVYLQMNSLKPEDTAVYYCATSAYQIYPRYGYWGQGTQVTVSS | high polyreactivity
QVQLVESGGGLVQAGGSLGLSCAASGRIFWTYAMGWYRQAPGKERELVASITWSGGSTYYADSVKGRFTISRDNANNTDYLQMNSLKPEDTSVYYCNTDVLAPYDSGYWGQGTQVTVSS | low polyreactivity
QVQLVESGGGLVQAGGRLRLSCAASGLTFDGYAMGWYRQAPGKERELVAAISWSGNTYYADSVKGRFKISRDNAKNTVYLQMNSLKPEDTAVYYCAVKYYHYGSWGQGTQVTVSS | high polyreactivity
QVQLVESGGGLVQAGGSLRLSCAASGFTFRRYAMGWYRQAPGKERELVAAITYSGTRTYYADSVKGRFTISRDIAKNTVYLEMNSLSPEDTAVYYCNAGVGYFVGTYYGFLPYDYWGQGTQVTVSS | high polyreactivity
HLQMQESGGGLVQAGGSLRLSCASSGSIFQATYMGWYRQAPGKEREFVASITYGSITNYADSVKGRFTIGRDNAKDTLYLQMNSLKPEDTAVYYCAVDRHYIPAFHYWGQGTQVTVSS | low polyreactivity
QVQLVESGGGLVQAGGSLRLSCAASGSTFHPYAMGWYRQAPGKERELVAAITWRVGSTYYADSVKGRFTISRDNAKNTVYLLINCLKPEDTAVYYCAVSYLSTLGRSRYDYWGQGTQVSVSS | low polyreactivity
QVQLVESGGGLVQAGGSLRLSCAASGTFSYYAMGWYRQAPGKERELVATISWSGDSTYYADSVKGRFTISRDNAKNTVYLQMNSLNPEDTAVYYCNADHFQWGAGYDYWGQGTQVTVSS | low polyreactivity
QVQLVESGGGLVQAGGSLRLSCAASGLTLEGYVMGWYRQAPGKERELVAAISRRGASTYYADSVKGRFTISRDNAKNTVYLQMNSLKTEDTAVYYCAAYGAYNNYRGQTSLGYGYDSWGQGTQVTVSS | high polyreactivity
QVQLVESGGGLVQAGGSLRLSCAASGRIIYTNAMGWYRQAPGKERELVAAINRSGGITYYADSVKGRFTISRDNAKNTVYVQMNSLKPEDTAVYYCAKDSSWASYNHDYWGQGTQVTVSS | low polyreactivity
QVQLVESGGGLVQAGGSLRLSCAASGRIFYLNGKGWYRQAPGKERELVAAISSSDDSTYYADSVKGRFTISRDNAKNTVYLQMKSLKPEDTAVYYCAAGYHQVQNYGDAYYWSELYSWGQGTQVTVSS | low polyreactivity
QVQLVESGGGLVQAGGSLRLSCAPSGSIFYRNAMGWYIQAPGKERELVAAISWSAARTYYADSVKGRFTISRDNAKNTVYLQMNSLKPEDTAVYYCATLYSYNYWGQGTQVTVSS | high polyreactivity
QYQLEDSGGGVVQAGCSLRLSCAASGRTFAYYAMGWYRQAPGKERELVAAISSSGGRTYYADSVKGRFTISRDNAKKTVYLQMNSLIPEDTAVYYCAATSTSGVLYDYWGQGTQVTVSS | high polyreactivity
QVQLVESGGGLVQAGGSLRLSCAASGRIFRRNTMGWYRQAPGIERELVAAITSSGGSTYADSVKGRFTISRDNAKNTVYLQMNSLKPEDTAVYYCATYVAYHRGYRTYDHWGQGTQVTVSS | low polyreactivity
QVQLVESGGGLVQAGGSLRLSCAASGRIFNYYAMGWYRQAPGKERELVAAISKRGGRTYYADSVKGRFTISRDNAKNTVYLQMNSLKPEDTAVYYCNKGFLPSWFTYPYKYYYWGQGTQVTVSS | low polyreactivity
QVQLVESGGGLVQAGGSLRLSCAASGSIFVANPMGWYRQATGKERELVAVISSGGGSTSYADSVKGRFTISRDNAKNSVYLQMNSLKPEDTAVYYCNRRRYDAGSTMGYWGQGTQVTVSS | low polyreactivity
